Substitutions are numbered along the chain they refer to. Names may count otherwise.
B1: RAD51 WT (natural protein, human, UniProt Q06609 1-339, looked up)
chain: MAMQMQLEANADTSVEEESFGPQPISRLEQCGINANDVKKLEEAGFHTVEAVAYAPKKELINIKGISEAKADKILAEAAKLVPMGFTTATEFHQRRSEIIQITTGSKELDKLLQGGIETGSITEMFGEFRTGKTQICHTLAVTCQLPIDRGGGEGKAMYIDTEGTFRPERLLAVAERYGLSGSDVLDNVAYARAFNTDHQTQLLYQASAMMVESRYALLIVDSATALYRTDYSGRGELSARQMHLARFLRMLLRLADEFGVAVVITNQVVAQVDGAAMFAADPKKPIGGNIIAHASTTRLYLRKGRGETRICKIYDSPCLPEAEAMFAINADGVGDAKD
B2: RAD51 A55V (natural protein, human, UniProt Q06609 1-339, looked up)
chain: B1 chain with A55V
B3: RAD51 A79D (natural protein, human, UniProt Q06609 1-339, looked up)
chain: B1 chain with A79D

Columns and labels:
Test in all cases: two-hybrid
RAD51 A55V = target: B2
RAD51 A79D = target: B3
XRCC3 WT = target: T1, XRCC3 WT (human, UniProt O43542 1-346)
T1 sequence (looked up): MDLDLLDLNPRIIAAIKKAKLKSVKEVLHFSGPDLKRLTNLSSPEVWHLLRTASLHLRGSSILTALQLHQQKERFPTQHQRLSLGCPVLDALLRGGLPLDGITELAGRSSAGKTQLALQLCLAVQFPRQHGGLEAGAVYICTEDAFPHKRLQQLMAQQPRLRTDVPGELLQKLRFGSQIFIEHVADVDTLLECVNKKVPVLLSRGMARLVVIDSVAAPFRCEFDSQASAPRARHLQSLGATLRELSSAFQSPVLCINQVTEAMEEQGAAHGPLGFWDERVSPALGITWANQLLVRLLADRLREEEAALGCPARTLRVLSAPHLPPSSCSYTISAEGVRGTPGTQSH

RAD54L WT = target: T2, RAD54L WT (human, UniProt Q92698 1-747)
T2 sequence (looked up): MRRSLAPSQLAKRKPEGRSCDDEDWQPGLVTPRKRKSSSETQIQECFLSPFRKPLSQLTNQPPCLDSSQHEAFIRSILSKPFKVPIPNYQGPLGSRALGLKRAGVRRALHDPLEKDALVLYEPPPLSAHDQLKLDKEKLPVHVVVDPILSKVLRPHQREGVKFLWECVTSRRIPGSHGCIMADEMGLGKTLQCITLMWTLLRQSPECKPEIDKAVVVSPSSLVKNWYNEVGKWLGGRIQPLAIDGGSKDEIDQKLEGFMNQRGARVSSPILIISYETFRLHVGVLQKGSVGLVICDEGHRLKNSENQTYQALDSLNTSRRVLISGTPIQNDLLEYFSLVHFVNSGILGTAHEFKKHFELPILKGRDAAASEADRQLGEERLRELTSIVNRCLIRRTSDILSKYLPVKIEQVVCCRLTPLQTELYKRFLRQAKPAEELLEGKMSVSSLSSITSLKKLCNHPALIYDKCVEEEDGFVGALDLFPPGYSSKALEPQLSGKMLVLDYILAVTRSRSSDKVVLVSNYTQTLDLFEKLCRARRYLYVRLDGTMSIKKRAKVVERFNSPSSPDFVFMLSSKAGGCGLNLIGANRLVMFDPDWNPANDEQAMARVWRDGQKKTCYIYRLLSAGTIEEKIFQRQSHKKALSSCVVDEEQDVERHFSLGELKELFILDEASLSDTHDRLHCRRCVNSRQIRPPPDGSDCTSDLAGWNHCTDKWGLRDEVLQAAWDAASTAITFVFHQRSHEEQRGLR

RAD51 WT = target: B1

B1
Y2H % of WT (RAD51 A55V): 90.8 % of WT
Y2H % of WT (RAD51 A79D): 109 % of WT

B2
Y2H % of WT (XRCC3 WT): 97.8 % of WT
Y2H % of WT (RAD54L WT): 112 % of WT
Y2H % of WT (RAD51 WT): 135 % of WT

B3
Y2H % of WT (XRCC3 WT): 21.5 % of WT
Y2H % of WT (RAD54L WT): 90.6 % of WT
Y2H % of WT (RAD51 WT): 95.1 % of WT

From publication PMC5834346 (Familial cancer, 2018)
